The values below come from patent US20240376204A1.

The target of this test is human PVRIG expressed on cells (human) (UniProt Q6DKI7). Briefly: cell-based or functional assay.
Sequence of human PVRIG expressed on cells (human) (Q6DKI7 41-326 limits assumed, form in doubt): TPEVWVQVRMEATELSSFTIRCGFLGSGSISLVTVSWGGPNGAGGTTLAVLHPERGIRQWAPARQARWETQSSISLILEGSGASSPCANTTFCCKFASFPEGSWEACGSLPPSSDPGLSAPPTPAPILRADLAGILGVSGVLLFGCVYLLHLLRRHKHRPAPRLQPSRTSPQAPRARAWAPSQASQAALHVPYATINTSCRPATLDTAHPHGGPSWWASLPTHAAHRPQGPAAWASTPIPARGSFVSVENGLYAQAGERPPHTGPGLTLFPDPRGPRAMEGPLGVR

hIgG4 isotype control (antibody) displayed an IFNγ, mixed lymphocyte reaction, 20 nM antibody of 74 pg/mL; an IFNγ, mixed lymphocyte reaction, 100 nM antibody of 89 pg/mL; a Killing activity (%) of NK92 on K562, 4 nM antibody of 11.2%; a Killing activity (%) of NK92 on K562, 20 nM antibody of 11.7%. The substance also registered a Killing activity (%) of NK92 on K562, 100 nM antibody of 9.2%.
